Two molecules from article PMC5027247 (2016) can be followed below.

The term Kd denotes the constant that tells how readily two partners part at equilibrium.

Like-named read-outs stand apart in the source and are kept apart here.

Experiment in all cases: ITC
(In general: Isothermal titration calorimetry measures the heat released or taken up as one component is titrated into another.)

For assay [1], the target named is T1, TBK1 CTD(E696K) (human, UniProt Q9UHD2 677-729, E696K).
T1 sequence: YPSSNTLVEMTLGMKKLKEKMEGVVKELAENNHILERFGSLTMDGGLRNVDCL

The target in assay [2] is T2, TBK1 CTD V700Q (human, UniProt Q9UHD2 677-729, V700Q).
T2 sequence: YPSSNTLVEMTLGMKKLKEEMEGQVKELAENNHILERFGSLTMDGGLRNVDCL

In assay [3] the target is T1, TBK1 CTD(E696K). This is another data set of the same source.
In assay [4] the target is T2, TBK1 CTD V700Q. This is another data set of the same source.
In assay [5] the target is T3, OPTN(26–119) E50K (human, UniProt Q96CV9 26-119, E50K).
In assay [6] the target is T3, OPTN(26–119) E50K. The source holds these as a separate data set.
Target sequence in this assay (Q96CV9 26-119 E50K): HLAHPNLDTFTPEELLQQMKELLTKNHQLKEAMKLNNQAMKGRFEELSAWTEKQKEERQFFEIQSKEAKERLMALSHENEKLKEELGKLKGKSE

For SSDNMQHAYWELKREMSNLHLVTQVQAELLRKLKTSTAIK (domain or fragment) [NAP1 TBD (residues 215–254)], the Kd was found to be 660 nM in the assay with TBK1 CTD(E696K) [1], 6060 nM with TBK1 CTD V700Q [2], 660 nM with TBK1 CTD(E696K) [3] and 6060 nM with TBK1 CTD V700Q [4].

B1: TBK1 CTD (residues 677–729) (domain or fragment)
chain: YPSSNTLVEMTLGMKKLKEEMEGVVKELAENNHILERFGSLTMDGGLRNVDCL
For the molecule B1, the Kd with OPTN(26–119) E50K [5] and with OPTN(26–119) E50K [6] was 100 nM throughout.
